Measurements published in paper PMC11997652, “Transcription factors MdEIL1 and MdHY5 integrate ethylene and light signaling to promote chlorophyll degradation in mature apple peels”.

T1: MdEIL1 (labelled MdEIN3-HIS in the Fig. 7d figure text) (apple, UniProt D5L144 1-659)
T1 sequence: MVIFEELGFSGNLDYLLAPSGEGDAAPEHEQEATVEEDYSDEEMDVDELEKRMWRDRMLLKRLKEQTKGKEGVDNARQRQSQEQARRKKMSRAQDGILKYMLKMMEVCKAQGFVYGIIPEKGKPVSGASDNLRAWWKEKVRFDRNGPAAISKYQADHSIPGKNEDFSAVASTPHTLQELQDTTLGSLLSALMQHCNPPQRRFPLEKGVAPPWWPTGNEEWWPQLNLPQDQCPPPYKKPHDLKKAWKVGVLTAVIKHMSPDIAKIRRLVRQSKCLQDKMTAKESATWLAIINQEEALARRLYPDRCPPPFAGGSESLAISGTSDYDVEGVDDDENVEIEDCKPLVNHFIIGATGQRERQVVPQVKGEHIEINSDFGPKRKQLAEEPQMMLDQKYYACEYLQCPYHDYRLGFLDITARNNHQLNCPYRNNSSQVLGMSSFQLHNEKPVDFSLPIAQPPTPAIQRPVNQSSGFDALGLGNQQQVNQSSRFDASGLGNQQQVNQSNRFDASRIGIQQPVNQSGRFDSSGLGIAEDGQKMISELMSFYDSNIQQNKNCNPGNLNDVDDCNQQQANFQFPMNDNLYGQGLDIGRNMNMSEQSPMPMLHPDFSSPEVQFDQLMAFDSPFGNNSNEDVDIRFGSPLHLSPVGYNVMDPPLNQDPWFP

T2: MdEIL1 (labelled MdEIN3-HIS in the Fig. 7d figure text);MdHY5 (apple;apple, UniProt D5L144;L0MZN5 1-659;1-164, |)
T2 sequence 1: T1 sequence
T2 sequence 2: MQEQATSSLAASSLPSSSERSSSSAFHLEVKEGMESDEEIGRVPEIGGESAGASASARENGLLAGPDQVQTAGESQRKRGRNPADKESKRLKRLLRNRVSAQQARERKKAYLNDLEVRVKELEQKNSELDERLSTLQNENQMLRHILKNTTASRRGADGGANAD

T3: MdHY5 (apple, UniProt L0MZN5 1-164)
T3 sequence: T2 sequence 2

B1: MdERF17-TACAT3 hot probe (dsDNA)
DNA 1: GGTGAGGTTTGGGTTGAATTTACATAATGAGTCACTCATAGTAAA
DNA 2: TTTACTATGAGTGACTCATTATGTAAATTCAACCCAAACCTCACC
B2: MdERF17-G-box3 hot probe (dsDNA)
DNA 1: CCGTATGAGGACAAATAACACACGTGCTTCGAAACCCGTCTCTCTG
DNA 2: CAGAGAGACGGGTTTCGAAGCACGTGTGTTATTTGTCCTCATACGG
B3: MdHY5-TACAT hot probe (dsDNA)
DNA 1: GCTTCCCCGTAACCAAGAAATACATGCATTTTCCGTCCAGCACAC
DNA 2: GTGTGCTGGACGGAAAATGCATGTATTTCTTGGTTACGGGGAAGC
B4: MdERF17-G-box1 hot probe (dsDNA)
DNA 1: GTGTGTTTTATTGCATCATTCACGTGTCATCTTTGCAAAAAATTAG
DNA 2: CTAATTTTTTGCAAAGATGACACGTGAATGATGCAATAAAACACAC
B5: MdERF17-G-box2 hot probe (dsDNA)
DNA 1: ATCATATACATATATATATGCACGTTGAAAACTTAGCTCCTTTGTT
DNA 2: AACAAAGGAGCTAAGTTTTCAACGTGCATATATATATGTATATGAT

Columns and labels:
[1] = target: T1, MdEIL1 (labelled MdEIN3-HIS in the Fig. …); experiment: EMSA; LightShift Chemiluminescent EMSA kit (Thermo); buffer, salt, pH and temperature not stated; cold probe 25x, 50x, 100x; conditions: protein: recombinant; tags: His (pET32a fusion); label: 3' biotin on both strands; blunt
[2] = target: T2, MdEIL1 (labelled MdEIN3-HIS in the Fig. …); experiment: EMSA; MdHY5 added to MdEIL1 enhances binding; LightShift Chemiluminescent EMSA kit (Thermo); buffer, salt, pH and temperature not stated; cold probe 25x, 50x, 100x; conditions: protein: recombinant;recombinant; tags: His (pET32a fusion);His (pET32a fusion); label: 3' biotin on both strands; blunt
MdHY5 = target: T3, MdHY5; experiment: EMSA; LightShift Chemiluminescent EMSA kit (Thermo); buffer, salt, pH and temperature not stated; cold probe 25x, 50x, 100x; conditions: protein: recombinant; tags: His (pET32a fusion); chain copies: 2; label: 3' biotin on both strands; blunt
[3] = target: T2, MdEIL1 (labelled MdEIN3-HIS in the Fig. …); experiment: EMSA; MdEIL1 added to MdHY5 enhances binding; LightShift Chemiluminescent EMSA kit (Thermo); buffer, salt, pH and temperature not stated; cold probe 25x, 50x, 100x; conditions: protein: recombinant;recombinant; tags: His (pET32a fusion);His (pET32a fusion); label: 3' biotin on both strands; blunt
[4] = target: T2, MdEIL1 (labelled MdEIN3-HIS in the Fig. …); experiment: EMSA; MdHY5 with MdEIL1 enhances binding; LightShift Chemiluminescent EMSA kit (Thermo); buffer, salt, pH and temperature not stated; cold probe 25x, 50x, 100x; conditions: protein: recombinant;recombinant; tags: His (pET32a fusion);His (pET32a fusion); label: 3' biotin on both strands; blunt

Binder | binding result [1] | binding result (MdHY5) | other results
B1 | binds |  | binding result [2]: binds
B2 |  | binds | binding result [3]: binds
B3 | binds |  | binding result [4]: binds
B4 |  | no binding | 
B5 |  | no binding | 
